Assay results as given in the supplement of paper PMC12636428.

Tested on: Saccharomyces cerevisiae
Assay: transcriptional activation domain activity (GFP:mCherry ratio, weighted mean of sorted bins, harmonized to initial dataset scale) (arbitrary fluorescence ratio units); higher = stronger transcriptional activation
Settings: beta-estradiol 1 µM; induction time 4 h
Procedure, shortened: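 Protein tiles carrying barcodes and fused to an estradiol-inducible synthetic transcription factor were placed at the URA3 locus of yeast diploids with a GFP reporter. Following 4 hours at 30 °C in SC with 1 uM beta-estradiol, cells were sorted into 8 GFP:mCherry bins, barcodes were sequenced, and tiles with fewer than 50 reads were discarded. Activation activity is given as the read-weighted mean of bin median fluorescence, averaged across barcodes and linearly mapped to the initial dataset scale.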

Sequence | transcriptional activation domain activity
KQYCVRPNSGRIEPGREVEVSVLLQAMKQEPAPDARCRDKFLVQSVTITSDQE | 20500
ACSCLSLITIFVGSGVVFQWFVSLIGSVLFQSWILILLLHFRFRYCWRKQGRP | 49200
ANHQIYLDWWYTWCLAYFMDTHRDVCIVLKKSLKWVPIFGWAMHQFFNFIFLA | 41800
MMHSLHPLSISILSLDFNLSYLLFVLPCHRIICSFFRLLAVLFHFFLFIGFYL | 60300
ELKDGGGGESSPIEIADRVVVEECDMEKVALDRTLGRLWRGWRKRLRSPATPV | 65100
MLSLRQCYLVLCTLLIITGVGLASTIFIPVNPFYQLLLMENVAFPWIHFILFC | 49900
PCPETSTPPPPPPKPTTAYPPPKSSEAPPPPPPKPTTAYPPPPKSSEAPPPPP | 47900
KEEAPAEEQEKEEKKEKVPLSDARKGRARGPQRRAPAAAKAAAAAAAAPAPAV | 34400
DLFMTLGWISGFMAELIAVQGACSLGWHPGCTNFNWLMAWLFFLFLSWGAGFF | 66400
APTDETGDAETKPRGRGRPKGSGTAKKAESQPESAEPTTARRGRKRASAAAES | 43400
MKQHEYFHLGINLFCPPFFILKSYKEAILSLLLAFKILEIWTFFFIFPLFFLF | 47800
STHSVSLLVVWALRRIRVNLVKLAGITYMVPFPLLLVLVMIGSSSYLSWIFWI | 64900
MTTNRDKAFFFFFNCERPIFNFFFCPFFLFFYIPFYFPYPYFFSFSYFSFLYL | 78200
MVLINIPNFLFSLFFFLFSFFSLLPFFTYLTFLSSSSLLLSTFCCSLASSPCM | 50000
TGKRKFRSSFLLYLAARWCPLFCVITILVGVDPINRINCQAYVVFAFLFANIS | 52000
MLRVPGSWFGMLFMGLLVSRERLSLLASLLFFVQVIFIRLLVVFWMICGGQIP | 31400
MALFRALPLKIRNLIYLKLLNVSPLWISPIWIITDYYKERPIPLLKGLSLFLV | 45400
PAASTTHATAAPPAAPSPPSQTTPSAPATAASAPRTSPRPCASSCTSSATSRS | 31600
MSFVDLHGIWGFFLPFIFSVINWYLNYVLILTLLFFLCHVRIWVLYLVNIYRE | 55000
WYTTISSTGLLSLLLYSLPFQPARLWVLGGILYIFSLVSFCALLLVHLVRFLV | 47500
MLFSLYLFFYFLFFVCDGYVTMGSVFFFCSCWWCSYYYLTINIGLTNYFFPPL | 53300
MMFCLRSFIPLLLLPLPPSLSPLHLVLLLFLTYILNRPCIYCSFLLLILFVSS | 60600
SGKLVFGPVSVFNGNVSLRIKKPLKGMTLTVTFNGVAEVDKYLFTFLNISHEV | 57800
MSTQGPAKRRGAQATDKPVKRTRVSRACDQCRIAREKCDGAQPTCSTCSTSRR | 36700
SDKKAGNDKEEKKEEKKADGSEEKGKKVKDAEKEKEDKKSQQSEKKADDNGDK | 25000

Sequence | transcriptional activation domain activity
MFTRLLRYLHCSHFCFAIATRFRGWIGLFSPLYVSCFSQPFRFRYLGCLLFLF | 52800
MVIRYGKLNLKYHPVHCLNHFQILCLSWAFCALLDPVGLIVSILLWKLLPTIE | 69300
IISARDAGNGEEAAAQNVLNCFEYQFPNLQTIQSLVHEQTLLSQLASSATPHS | 75200
IGMGLDAMLILSRLSRFIRIACVVFWWPGFAVFIAACKSLCLLLHFRDVRELR | 63000
EDAGDDAAPSAKKANVSKKRKKADESDGENDKPVKTPKTKLKLTTKTPKEPSA | 36100
MVFSFLLDILAGILYYYLVLGSHILASCFDYRWFYFFFFFFVLFFSLLFSVFL | 61900
VEANTSANLHFDNVIPTVTNADIRKKRSNWDNMMTSGPVEDFWTINDDYGFLT | 141000
AAGASTTAQVSKKRQVLLRVNNRTYTRIDCIGRGGSGKVYRVSAESGKMLALK | 62100
SGTSLFLFYFYFIFILILISIITFFFLFLIFFFIILFLLLLFFSYPSGIRPGW | 26900
KKREKKERSRRHRDDDGERRRRHRSRSRSRDRERRHRHRDRSRSRDRRRDDGR | 35200
MYCMRYFVPLLLLPFPDSPPIFVILFLISFFLHQKPCIYCTLLLFALFSSTCF | 57700
FKVLMQVMPFVLHGLVDDKLRTLWRMLGELGAFLWMPLIKDKEVYLRKLAVII | 48700
RIFGLQSPQLVYVESMARVRKLSLSGKILRLLVDRFFVQWEALADGKTGSRWW | 61100
IIRLCSYFQRYVDLPIHNIYDRIAAHASTEILFYANALKEDFFRFGLVYRLYA | 59200
CKWLGFILLFVPVILSFLFPFLFYSFFSSFVFFFFFFFFVMAVFLFLQSPRSF | 23300
EEDLWTMTNLFVSPVARSLPCTSLLLCLCSLLVYLLASLTFPYLAFFLVFILF | 53000
EKGEEGGSGGEGGEGRRGGQARGTGRRAGQEGKGPGKGEGGAARRRKEGEARK | 54500
NVRLQVDQCAFVLEHCADATPGLINYIQWYYCSSTKPIVFILMCFWLLFLFGF | 40400
MVIMYKFVFYTGFDRFVFFFWDFFFFFFFFCMLSMGYFSYFIFILSLLESVLV | 26200
LLVTLMQVPDTDQVVLFNKVLSVIVLVMAHHHELGGPRFDQRPFLRLFSSILA | 43800
MIGVVCALYLFFFPSFFLLFFFSTLLDDDTLIIYKFFLLWESWFVAFILFFYL | 24900
MGRLLLLICFNTSGRLPFLLPLLLFFFFLLFFLYPPLHIFSFSFSLSPSNVPP | 35200
IWVHHVAYVRNCLAQLIFTWLDEYWRPLSDACILPRLRSWVLSRFRDAQLVQG | 78700
LKNLMATIGLTRKVLFTGRQLEFYLAAVKLLATKDVFVKWTAIAKNFFMIVWV | 55500
WSFLSFSFLPFPLSSFLLLSYPPPSFFLLPPSPFFFAVLLHLFTLLLFSLLLL | 63900

Sequence | transcriptional activation domain activity
SHRKGIERKKRLREEERRREAKENGIVLEREKRADKGKERGRRDRGVDAPGVG | 26800
GFCMASKTLALVLRHLRRYRWCLVARIRRKATEISTRFCALGGILIIYIRNVS | 73500
RVELLLRSFKVFTLKTGEQCLDYLGDKFRVVLNLPEDWTNTAVGAWLVQKVIL | 39700
LVVKVLNNTAFSPFFTFFIPVLYWSQNQSWSAPTVFWSTAWFLLVCIFSLLKL | 20900
KIHLVNLAQVTVFFIHRLLYGIIPLFEIATCAYYPFLVSLWHINYLLFYIVMF | 42000
VPWSRSGHAIDLRFVRSFVAALVFLLLLLFLLLLLLLLLLLLLLLFLLFFFVF | 37200
KRGRPAKKAQEEVEVEEAAPAKRGRKAVAKEEPAKKETKAKPTTKSRGTKRAA | 38600
SDYGLHLRHVLLLSPTIFPIIFAALMGRCFRSIGLYRAERGISLIRLEQLIGC | 55900
TTWLAHSKKKNCDVCKHPYSFTKVYATDMPTRLPPVLLLRRIAQQSFFAMVFA | 44800
LLMYTLFYMISEIFYSVAYDAHYFMFDPISVALVQCPMFACVVISVLYGHIWS | 57800
RRTPFLGVGRSEGKMRLEKFVDEIGQQREDGTDEFLVRGSKEEKTDVVTAVNH | 9610
TVLLDVALNGNPKELIVFILEHVYSLENDLTVLQQSLLVLVICKVYNETYPKQ | 67400
MFCLRSWIPILFFLSVSNASPIYLILFVVTTYLLNRPCVYCSLLLGVLVLALF | 38500
MVLLTTLSKKTTIVTVLCSTVINMGKFGFTRHNHRCMRTGALLCLLLFLAYHF | 42800
PCSHTILNYGMTLSVSLVVVFRVSHMSFLSSSELSFLRGYHMMLASAFFLFVF | 36600
KRPTSHTLRPFFYFLLAVIYTVAHALVMIYQMISLNVAVNSYDNALLTLLVSN | 52200
IDGVWFAYCHLSLFALLGEHISLNATNSEFPLVPSQSWKWDDFLFSISFLETL | 71300
MVSILLFFLSSAFLLTYPYPLLNLALYLLLMFIFSTLYSLTYLLLGFFFFFLA | 58600
RYLKCGGHVKHFFDLSRRADLSLEWLRRYPMEAVITDQIVSWLCHICLRQMRV | 46000
MSCLDWNVFVFFFYLSILIFRLITHHYLSVFDLFFLYPFFLFLFTFPPTSFLL | 49500
TIPGLIRTSPRFGIMLLCLLLSIIFLFTDVIFMIVVSRRGGMNPFWRLALVFK | 52600
MNGLWCRDDILFYISFVLILFSSFSIFLLLLDRLRFLFSFLFFFFFWCFVFIV | 45800
FKSMIFFLWFLDTLQLAFVIHALYYYLITSYGNIVALMKPTWSILLQIYVTSL | 69400
VNDNSTGSTDSTGSTGNKNKKNNNNSDDVLPFISESPFDMNQVTNFFSPGSTG | 38600
